Test results: the DeepSol protein solubility set

experiment: soluble on expression in E. coli; label from the status in PepcDB or PDB records

| Sequence | soluble on expression in E. coli |
| --- | --- |
| MYDWFSEMRKKDPVYYDGNIWQVFSYRYTKEVLNNFSKFSSDLTGYHERLEDLRNGKIRFDIPTRYTMLTSDPPLHDELRSMSADIFSPQKLQTLETFIRETTRSLLDSIDPREDDIVKKLAVPLPIIVISKILGLPIEDKEKFKEWSDLVAFRLGKPGEIFELGKKYLELIGYVKDHLNSGTEVVSRVVNSNLSDIEKLGYIILLLIAGNETTTNLISNSVIDFTRFNLWQRIREENLYLKAIEEALRYSPPVMRTVRKTKERVKLGDQTIEEGEYVRVWIASANRDEEVFHDGEKFIPDRNPNPHLSFGSGIHLCLGAPLARLEARIAIEEFSKRFRHIEILDTEKVPNEVLNGYKRLVVRLKSNE | soluble |
| MDLHLKNLFGRFQEQFGSGPGLGPGSGVCLMIVEGISSNIIQSIFRASASLYSSEPWKRLRPGHLFGVRVGKDSDWSGKRQPFQCVQFIGGDGGDIAIYMYRSMSYALKMTDGDSWEMARDPNVEVFRVTYELESLMLPSNKRMVKSLSLEVSGTDRFPIMDVARCMTSGELQFRSPTLEELRLVFAVMKALSLVHPLLLQEEKQVRGLPRMIKFSPFIETVDVQWPSEMGKGHDFVAVTVSHPPGQSYEQKREDDELEIVSGMTA | soluble |
| GSQVQLVESGGGLVQAGGSLRLSCAASGYAYTYIYMGWFRQAPGKEREGVAAMDSGGGGTLYADSVKGRMTISRDKGKNTVYLQMDSMKPEDTATYYCAAGGYELRDRTYGQWGQGTQVTVSS | soluble |
| DPLQILGQLTGQLEQQQTAPSGTSAKAPPANDQQAEFVASILGDTEDTWKALFAQAGKQYRDPKLVLFSGQVNSACGFASAAVGPFYCPADQRVYLDMSFFREMETRFAAAGDFAQAYVIAHEIGHHVQTLLGVSAKVDAARRAGQRMEGDNGLLVRQELQADCLAGVWAYQAQKRLNWLEPGDVEEALNAANAIGDDRLQQQGRGRVVPDSFTHGTSAQRVRWFKIGFAEGEVNRCDTF | not soluble |
| MSLSDTIPVFDGHNDFLLRLLRNPANRETIWLKGDGTGHLDLPRMKEGGFAGGFFAIYVPSPQAHDAAHFEAMMDAPPFELPLPPMIRAEQAQPVALAMAGHLLWMERAARGRFKVCRTAAEVRSCHADGIVSGIMHMEGAEAIGADLDALHLFHSLGLRSLGPVWSRPTVFGHGVPFRFPGSPDTGEGLTEAGRRLVAECNRLKIMLDLSHLNEKGFDDVARLSDAPLVATHSNAHAVTPSTRNLTDRQLAMIRESRGMVGLNFATSFLREDGRRSAEMGWEPVLRHLDHLIDRLGEDHVGMGSDFDGATIPQGIADVTGLPALQAAMRAHGYDEPLMRKLCHENWYGLLERTWGEGHHHHHH | soluble |
| MIFEDKFIITTADEIPGLQLYSLGIASTISDNVDEIVENLRKQVKAKGGMGLIAFRITCADGKFLGYGTIVKADEAQFTMA | soluble |
| MVQQKVEVRLKTGLQARPAALFVQEANRFTSDVFLEKDGKKVNAKSIMGLMSLAVSTGTEVTLIAQGEDEQEALEKLAAYVQEEVLQ | soluble |
| GMPTDDIVQLLKGQEEAWNRGDLDAYMQGYWQNEQLMLISNGKFRNGWDETLAAYKKNYPDKESLGELKFTIKEIKMLSNYAAMVVGRWDLKRLKDTPTGVFTLLVEKIDDRWVITMDHSSD | soluble |
| MSWFLLNRNLTLLEPYDWKLSRTVLRGERGSNASDLPGKAIAKEGMADYIRYLFKTVRKFYGEAVVVTQEVDDIISSPIVKESIVNNSDCKILLDQRKYLNKFSQIQSLLGLTDKEKAQILSVNMSNDPRRKYKEVWFGLGGVQSTVYATEVSLEEYLCYSTEESEKVELEGLTKELGGNIELAIRRLAEKKRNQNNEIP | not soluble |
| MKVYIVEHAIGSFAYDEQGKLIDFVLSSKDLGKVVDSLLDNEKGIPLPTTIELIQKIKPEEVVVENEAEIPNLQQLGVKASYEIHNLGSKIFRESLPKIAIETKFASSENDLYSFLYEVSFEYTRRKLRTAASKRDLLAIQAIRAIDDIDKTINLFSERLREWYSIHFPELNKLVEDHELYASIVSKFGHRDEITNTGLDEIGVNKDLSTKILDASKKSIGADITDVDIRSIKMLSDTILELFRIRSELTDYVESVMKEVAPNVTALVGPTLGARLLSLAGSLEDLAKMPASTIQVLGAEKALFRALRKGGKPPKHGVIFQYPAIHTSPRWQRGKIARALAAKLAIAARIDAFSGRFIGDKLNEELKKRIEEIKTKYAQPPPRKPQEQKRKEEERKGKKGGREKRKGRR | soluble |
